Key:
[1] = biological target: T1, YTHDC1 YTH domain (Homo sapiens, UniProt Q96MU7 345-509); test: ITC
[2] = biological target: T1, YTHDC1 YTH domain; test: X-ray crystallography

Row | Binder | binding result [1] | other results
1 | CGCGGACTCTG (ssDNA, none) [unmodified 11-nt ssDNA] | no binding | 
2 | CGCGGACTCTG (ssDNA, N6-methyladenine at A6) [11-nt N6mA ssDNA] |  | Kd [1]: 10 nM
3 | CGCGGACTTC (ssDNA, N6-methyladenine at A6) [10-nt N6mA ssDNA] |  | binding result [2]: binds
4 | CGCGGACUCUG (ssRNA, none) [unmodified 11-nt ssRNA] | no binding | 

Source: publication PMC7544203
